According to patent US20130184211A1 (NEW YORK UNIVERSITY, published 2013):
Blank lines part the entries; values can stand above or below the binder they belong to.

Experiments:
[1] = molecular target: T1, complex of V5-tagged FGFR1c and FLAG-tagged membrane-spanning murine Klotho isolated from transfected … (murine, UniProt O35082 35-1014); test: co-immunoprecipitation competition; competitor FGF23^28-251 (1 nM)
T1 construct: Isolated from cell lysate on anti-V5 agarose beads; also called FGFR1c-Klotho complex (co-immunoprecipitated); binary FGFR-Klotho complex; not shown: FGFR1c, V5-tagged, expressed from a vector in HEK293-Klotho cells
Excerpt: (§1) Co-immunoprecipitation may also be used to determine that an agent specifically binds the binary FGFR-Klotho complex. One aspect of the present invention utilizes co-immunoprecipitation studies. Subconfluent cultures of a HEK293 cell line ectopically expressing the FLAG-tagged membrane-spanning form of murine Klotho were transfected with expression vectors for V5-tagged FGFR1c, FGFR3c, or FGFR4. Two days later, the cells were lysed, and FGFR-Klotho complexes were isolated from cell lysate using anti-V5 agarose beads. The beads were then incubated with either FGF23¹⁸⁰⁻²⁵¹ or FGF23²⁸⁻²⁵¹ alone, or with mixtures of FGF23²⁸⁻²⁵¹ with either increasing FGF23¹⁸⁰⁻²⁵¹ or increasing FGF23¹⁸⁰⁻²⁰⁵. Bead-bound proteins were resolved on SDS-polyacrylamide gels, transferred to nitrocellulose membranes, and labeled using antibodies to Klotho, FGF23, and V5 epitope tag.

[2] = molecular target: T2, complex of V5-tagged FGFR3c and FLAG-tagged membrane-spanning murine Klotho isolated from transfected … (murine, UniProt O35082 35-1014); test: as above
T2 construct: Isolated from cell lysate on anti-V5 agarose beads; also called FGFR3c-Klotho complex; binary FGFR-Klotho complex; not shown: FGFR3c, V5-tagged, expressed from a vector in HEK293-Klotho cells
Excerpt: as §1

[3] = molecular target: T3, complex of V5-tagged FGFR4 and FLAG-tagged membrane-spanning murine Klotho isolated from transfected … (murine, UniProt O35082 35-1014); test: as above
T3 construct: Isolated from cell lysate on anti-V5 agarose beads; also called FGFR4-Klotho complex; binary FGFR-Klotho complex; not shown: FGFR4, V5-tagged, expressed from a vector in HEK293-Klotho cells
Excerpt: as §1

[4] = molecular target: T3, complex of V5-tagged FGFR4 and …; test: co-immunoprecipitation competition; competitor FGF23^28-251
Excerpt: as §1
Target sequence in this assay (O35082 35-1014, one chain of several): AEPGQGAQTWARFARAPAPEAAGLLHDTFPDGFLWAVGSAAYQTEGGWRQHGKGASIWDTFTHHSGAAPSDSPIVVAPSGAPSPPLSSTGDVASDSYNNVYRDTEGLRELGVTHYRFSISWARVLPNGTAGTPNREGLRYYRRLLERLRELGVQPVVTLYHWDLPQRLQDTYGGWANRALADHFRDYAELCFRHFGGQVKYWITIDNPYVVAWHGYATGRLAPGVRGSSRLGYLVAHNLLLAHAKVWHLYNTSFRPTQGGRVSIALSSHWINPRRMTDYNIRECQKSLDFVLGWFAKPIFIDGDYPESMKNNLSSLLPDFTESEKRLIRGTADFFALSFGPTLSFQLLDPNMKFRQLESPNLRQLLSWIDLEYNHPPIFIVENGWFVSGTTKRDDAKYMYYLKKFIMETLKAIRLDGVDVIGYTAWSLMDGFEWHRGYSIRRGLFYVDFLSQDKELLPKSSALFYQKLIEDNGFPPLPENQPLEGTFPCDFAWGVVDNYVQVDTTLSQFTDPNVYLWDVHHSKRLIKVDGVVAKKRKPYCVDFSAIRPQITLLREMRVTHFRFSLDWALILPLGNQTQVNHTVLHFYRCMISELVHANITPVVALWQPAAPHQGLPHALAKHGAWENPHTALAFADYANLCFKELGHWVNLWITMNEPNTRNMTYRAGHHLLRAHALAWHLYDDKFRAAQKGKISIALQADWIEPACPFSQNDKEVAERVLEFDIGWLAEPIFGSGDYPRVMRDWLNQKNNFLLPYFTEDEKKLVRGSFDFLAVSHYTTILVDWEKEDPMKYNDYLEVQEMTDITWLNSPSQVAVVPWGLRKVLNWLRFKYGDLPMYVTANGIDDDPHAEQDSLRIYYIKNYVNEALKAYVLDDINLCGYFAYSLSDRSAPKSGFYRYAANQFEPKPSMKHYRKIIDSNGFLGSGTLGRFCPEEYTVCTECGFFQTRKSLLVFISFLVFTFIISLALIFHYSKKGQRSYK

T2 sequence (O35082 35-1014, one chain of several): as above

molar excess over FGF23^28-251 that completely blocked its binding [1]: 76 fold molar excess | molar excess over FGF23^28-251 that completely blocked its binding [2]: 76 fold molar excess | molar excess over FGF23^28-251 that completely blocked its binding [3]: 76 fold molar excess
B1: N-terminally hexahistidine-tagged 72-amino acid C-terminal tail of human FGF23 (S180 to I251), FGF23^180-251 (peptide)
peptide: SAEDDSERDPLNVLKPRARMTPAPASCSQELPSAEDNSPMASDPLGVVRGGRVNTHAGGTGPEGCRPFAKFI
notes: Expressed in E. coli; also called FGF23 C-terminal tail peptide; C-terminal tail of FGF23; not shown: N-terminal hexahistidine tag (six His)

fold reduced potency compared to the FGF23^180-251 peptide [4]: > 100 fold
B2: FGF23 C-terminal region peptide (S180 to S205), FGF23^180-205 (peptide)
peptide: SAEDDSERDPLNVLKPRARMTPAPAS
notes: Made by solid phase synthesis (GenScript)
